Measured values taken from the supplement of paper PMC10724198.
± gives the standard deviation of the averaged measurements.

These sequences were tested on Saccharomyces cerevisiae (assay: protein stability index of tFT-peptide fusion (C-terminal peptide) (PSI (0-1 scale)); higher = more stable (slower turnover)). Details: genetic background: wild type; temperature: 30 C.
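Also: PSI is a weighted mean of sequencing reads over stability bins, variants kept only with over 10 reads, mCherry proximal and sfGFP distal, peptide attached via GGGS linker.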

Sequence | protein stability index
PARASLRCLCRN | 0.662 ± 0.055
PARLQSTLHPRF | 0.634 ± 0.012
PARPNMHTTPAD | 0.646 ± 0.02
PARPQSFPPPNV | 0.669 ± 0.035
PARPSPRPHLPD | 0.692 ± 0.04
PARPSSLQLFPY | 0.747 ± 0.0078
PARQDRPPDHAS | 0.729 ± 0.031
PARRPPLPRLFL | 0.665 ± 0.032
PASLPTPLPLPP | 0.618 ± 0.016
PATPSPLSSSAP | 0.711 ± 0.039
PAVAPRSTYAWH | 0.69619 ± 0.00054
PCGGVGRECVRG | 0.762 ± 0.032
PCPGSPPCHFYF | 0.691 ± 0.018
PCPRPTPLPPFP | 0.701 ± 0.055
PCPVLPLPPFYL | 0.728 ± 0.0074
PCRRPSSAPFPV | 0.696 ± 0.027
PCSGSFFLEFRV | 0.707 ± 0.021
PCSVDKAGSTKK | 0.606 ± 0.014
PDCSFLNSTFTS | 0.739 ± 0.088
PDGREQLVNGVT | 0.6359 ± 0.0019
PDGTGPLCAPEP | 0.646 ± 0.059
PDPPPRCRFLPL | 0.698 ± 0.044
PDQPQPRPATNQ | 0.681 ± 0.022

Sequence | protein stability index
PDRIQPRSVLLP | 0.7293 ± 0.0047
PDVPLASPSPFR | 0.625 ± 0.023
PEFNKLNRFVSQ | 0.74 ± 0.11
PEGPHTRTVVPA | 0.66 ± 0.0088
PEITWFVIGVIE | 0.541 ± 0.043
PEPSRRASAVSN | 0.648 ± 0.059
PERFHLVCWVGR | 0.712 ± 0.083
PFALPPPSPFPP | 0.7116 ± 0.0063
PFAVKYIFEVWK | 0.591 ± 0.028
PFCVPPPRPFSL | 0.743 ± 0.036
PFESSRRLAPSP | 0.722 ± 0.035
PFGDRSGLCVSV | 0.653 ± 0.017
PFIPLSMLSPLV | 0.68 ± 0.036
PFLEPPYPLLRS | 0.704 ± 0.17
PFLHPSSPPSPT | 0.698 ± 0.036
PFLLSPCSLSAS | 0.665 ± 0.026
PFPALQHAISRE | 0.699 ± 0.066
PFPLGPSLQTVI | 0.681 ± 0.028
PFPPLPPPPSPC | 0.71 ± 0.014
PFPPPPPPPRSP | 0.728 ± 0.047
PFPPPPTPTLSP | 0.755 ± 0.027
PFPPPRPPPAPP | 0.613 ± 0.023
PFPPRRLLSAPP | 0.671 ± 0.039

Sequence | protein stability index
PFPRPVSPSPPP | 0.743 ± 0.037
PFPSFLPLLLPS | 0.702 ± 0.069
PFPSLLPALSSL | 0.678 ± 0.044
PFPSPAAPPPSL | 0.674 ± 0.01
PFPSPPSPPSPL | 0.817 ± 0.11
PFPSTIQSYSYS | 0.738 ± 0.07
PFRSFVFSLDPF | 0.725 ± 0.049
PFSASSILESVI | 0.719 ± 0.098
PFTTSSQPDSPI | 0.735 ± 0.065
PFVAFLPPLSPP | 0.702 ± 0.037
PFVSGFGRPGYC | 0.751 ± 0.039
PGDPRARPRLCP | 0.71 ± 0.033
PGLGVGATRCVH | 0.734 ± 0.018
PGLPCRNRMPFR | 0.687 ± 0.0078
PGNAEQGIAVHL | 0.626 ± 0.055
PGNYVLSDPPLM | 0.715 ± 0.033
PGPATKAPLRTL | 0.671 ± 0.018
PGSILFRGVGAS | 0.691 ± 0.035
PGVAGSLSLLRR | 0.722 ± 0.097
PGVFEITPVMLI | 0.6949 ± 0.0055
PHAMNPNTSRVL | 0.682 ± 0.008
PHEKDKNMGKQK | 0.702 ± 0.085
PHLHHPPPPISA | 0.603 ± 0.027

Sequence | protein stability index
PHPATSPVARPP | 0.678 ± 0.014
PHPDPDHCHAPP | 0.713 ± 0.1
PHPHLPPARSPP | 0.675 ± 0.019
PHPPPPHPPPPP | 0.644 ± 0.027
PHRPRDFALTPS | 0.6905 ± 0.0048
PHRSTRIDVDPC | 0.837 ± 0.12
PHRSVSRLTILS | 0.658 ± 0.012
PHSDGVRLAEGF | 0.713 ± 0.077
PHSTTGPPPPLT | 0.695 ± 0.041
PHSVPPLTFPTS | 0.689 ± 0.037
PHVGSGDGVMKA | 0.598 ± 0.038
PHYRYLHPSPPP | 0.704 ± 0.0073
PIELTLQRPPGV | 0.671 ± 0.031
PIGLTCPASSVL | 0.692 ± 0.046
PILFHIPHRHVP | 0.749 ± 0.25
PIPLPLSPPLPT | 0.73 ± 0.011
PIPPDGGSPPSP | 0.714
PIPPDPPAYQGQ | 0.6426 ± 0.0064
PIPPPPPPPSSP | 0.699 ± 0.0086
PITKLHRHYARG | 0.6972 ± 0.0015
PIWWSRSALLAE | 0.671 ± 0.023
PKQMVVRRSRRP | 0.695 ± 0.07
PKVRAGYSYEVM | 0.673 ± 0.019

Sequence | protein stability index
PKYKKKNNKKKT | 0.709 ± 0.058
PLAGLWPCRSGS | 0.669 ± 0.016
PLALRPPFSHGL | 0.698 ± 0.024
PLAPNYPANTGT | 0.69 ± 0.021
PLAPPTSASRFS | 0.6466 ± 0.0027
PLAPYPPLPPPP | 0.69 ± 0.027
PLCCHRSTGCTL | 0.676 ± 0.022
PLCPPPPYPPRS | 0.745 ± 0.043
PLFLSLPLSFPS | 0.697 ± 0.0058
PLGDIRPSPRDS | 0.681 ± 0.0086
PLILFLSLSRSV | 0.613 ± 0.066
PLILRSLFIFPV | 0.641 ± 0.037
PLLDPFFPLVFT | 0.58 ± 0.019
PLLLPPVPPFCF | 0.674 ± 0.12
PLLPPSDTCSLL | 0.718 ± 0.089
PLLPSLPPLLAP | 0.651 ± 0.05
PLLPSPLIPFSH | 0.688 ± 0.026
PLLPSPPHSPTP | 0.657 ± 0.045
PLLPSPPLPCFF | 0.765 ± 0.029
PLLQALLPPAPP | 0.632 ± 0.026
PLLSPLPSHPHP | 0.815 ± 0.058
PLPAFPRLAIQP | 0.691 ± 0.021
PLPAISPPPTLP | 0.758 ± 0.036

Sequence | protein stability index
PLPAPRHNALTT | 0.6137 ± 0.0045
PLPASFPPFPTL | 0.802 ± 0.036
PLPCPRGHDHPA | 0.688 ± 0.068
PLPCSSLLVPLP | 0.627 ± 0.058
PLPLASVTPPYL | 0.669 ± 0.0067
PLPLPLASSFPS | 0.627 ± 0.059
PLPLPPPPHPSL | 0.723 ± 0.041
PLPLPPPPPLPL | 0.657 ± 0.041
PLPLPPSPPFQF | 0.751 ± 0.011
PLPPFPPHNLRA | 0.733 ± 0.082
PLPPHRLPYPRL | 0.81 ± 0.025
PLPPLPPPFLPP | 0.641 ± 0.1
PLPPPAFPPLDP | 0.671 ± 0.021
PLPPPLLPPSSS | 0.7302 ± 0.0013
PLPPPLPPPSPP | 0.647 ± 0.033
PLPPPPALILFP | 0.6856 ± 0.003
PLPPPPIPLAPP | 0.708 ± 0.054
PLPPPPPLLPTC | 0.669 ± 0.037
PLPPPPPPPPLP | 0.767 ± 0.024
PLPPPPPPSFPP | 0.769 ± 0.057
PLPPPPTLSCTQ | 0.701 ± 0.11
PLPPPRPLPTPL | 0.69 ± 0.055
PLPPPSASPLPP | 0.539 ± 0.044

Sequence | protein stability index
PLPPPTSPPSPP | 0.749 ± 0.11
PLPPSLRPALSP | 0.7188 ± 0.00078
PLPPSPLPRPCP | 0.761 ± 0.054
PLPRPPRLVFSS | 0.5 ± 0.012
PLPRPPSPPPAP | 0.68 ± 0.12
PLPRPVLPPLFS | 0.739 ± 0.073
PLPSHPPRPLPP | 0.67 ± 0.05
PLPSPPSPPPPP | 0.693 ± 0.0091
PLPSQYANPMIL | 0.664 ± 0.0051
PLPSSRSPSPPS | 0.711 ± 0.038
PLPTSMNTHALV | 0.683 ± 0.079
PLQPPHSPPFPP | 0.7 ± 0.028
PLRFLLPLLLPF | 0.582 ± 0.0087
PLRGPPPPPLPI | 0.677 ± 0.07
PLSLIRFSAFQS | 0.486 ± 0.036
PLSLPAPPPRPR | 0.654 ± 0.017
PLSLPPPPPSLP | 0.723 ± 0.022
PLSLPPRPFLHH | 0.735 ± 0.017
PLSLSSPPLFLL | 0.639 ± 0.0006
PLSPLHHCPLSP | 0.666 ± 0.039
PLSPLPPSPGPS | 0.766 ± 0.051
PLSPPLLPPPPP | 0.688 ± 0.014
